Data taken from patent US20060008846A1 (RESEARCH DEVELOPMENT FOUNDATION, published 2006).

T1: ALK4 (activin type I receptor) (UniProt P36896)
T1 sequence (looked up): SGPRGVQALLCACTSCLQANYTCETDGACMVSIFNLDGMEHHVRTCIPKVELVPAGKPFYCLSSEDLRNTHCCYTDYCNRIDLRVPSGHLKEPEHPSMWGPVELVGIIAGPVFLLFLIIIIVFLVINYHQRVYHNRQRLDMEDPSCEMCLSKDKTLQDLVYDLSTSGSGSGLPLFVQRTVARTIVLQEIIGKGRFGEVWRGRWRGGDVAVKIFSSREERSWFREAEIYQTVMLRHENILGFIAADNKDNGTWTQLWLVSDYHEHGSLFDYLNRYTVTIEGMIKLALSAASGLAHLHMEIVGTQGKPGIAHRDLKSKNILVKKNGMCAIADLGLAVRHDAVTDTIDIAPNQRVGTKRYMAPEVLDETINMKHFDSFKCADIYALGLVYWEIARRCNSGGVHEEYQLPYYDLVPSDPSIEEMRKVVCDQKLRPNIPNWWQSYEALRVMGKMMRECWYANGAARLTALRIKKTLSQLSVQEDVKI

T2: ALK4 (activin type I receptor) (UniProt P36896 24-505, limits assumed)
T2 sequence (looked up): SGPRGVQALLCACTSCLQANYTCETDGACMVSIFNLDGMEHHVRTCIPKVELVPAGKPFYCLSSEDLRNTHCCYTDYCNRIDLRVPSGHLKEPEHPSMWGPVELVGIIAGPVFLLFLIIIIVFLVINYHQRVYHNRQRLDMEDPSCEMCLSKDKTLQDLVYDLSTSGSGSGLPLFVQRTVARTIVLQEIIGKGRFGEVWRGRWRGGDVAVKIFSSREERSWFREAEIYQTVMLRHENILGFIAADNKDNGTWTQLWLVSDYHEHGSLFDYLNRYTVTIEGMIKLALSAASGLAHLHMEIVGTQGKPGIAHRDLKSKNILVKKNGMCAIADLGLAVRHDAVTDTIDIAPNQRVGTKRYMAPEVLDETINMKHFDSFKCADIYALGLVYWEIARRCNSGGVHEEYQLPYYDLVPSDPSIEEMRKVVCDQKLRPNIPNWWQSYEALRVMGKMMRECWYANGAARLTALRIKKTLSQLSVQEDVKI


Target: T1, ALK4 (activin type I receptor)
Experiment: cell-based or functional assay

% Activin Activity (A3-luciferase assay in 293T cells) (% of wild type activin-A)	Binder
101	activin-A S57A (ligand, human, UniProt P08476 311-426, looked up) GLECDGKVNICCKKQFFVSFKDIGWNDWIIAPSGYHANYCEGECPSHIAGTSGSSLAFHSTVINHYRMRGHSPFANLKSCCVPTKLRPMSMLYYDDGQNIIKKDIQNMIVEECGCS
64	activin-A V62P (ligand, human, UniProt P08476 311-426, looked up) GLECDGKVNICCKKQFFVSFKDIGWNDWIIAPSGYHANYCEGECPSHIAGTSGSSLSFHSTPINHYRMRGHSPFANLKSCCVPTKLRPMSMLYYDDGQNIIKKDIQNMIVEECGCS
83	activin-A S57P (ligand, human, UniProt P08476 311-426, looked up) GLECDGKVNICCKKQFFVSFKDIGWNDWIIAPSGYHANYCEGECPSHIAGTSGSSLPFHSTVINHYRMRGHSPFANLKSCCVPTKLRPMSMLYYDDGQNIIKKDIQNMIVEECGCS
86	activin-A I105A (ligand, human, UniProt P08476 311-426, looked up) GLECDGKVNICCKKQFFVSFKDIGWNDWIIAPSGYHANYCEGECPSHIAGTSGSSLSFHSTVINHYRMRGHSPFANLKSCCVPTKLRPMSMLYYDDGQNIIKKDAQNMIVEECGCS
59	activin-A S90A (ligand, human, UniProt P08476 311-426, looked up) GLECDGKVNICCKKQFFVSFKDIGWNDWIIAPSGYHANYCEGECPSHIAGTSGSSLSFHSTVINHYRMRGHSPFANLKSCCVPTKLRPMAMLYYDDGQNIIKKDIQNMIVEECGCS
101	activin-A Y35A (ligand, human, UniProt P08476 311-426, looked up) GLECDGKVNICCKKQFFVSFKDIGWNDWIIAPSGAHANYCEGECPSHIAGTSGSSLSFHSTVINHYRMRGHSPFANLKSCCVPTKLRPMSMLYYDDGQNIIKKDIQNMIVEECGCS
82	activin-A N76A/L77A/K78A/S79A (ligand, human, UniProt P08476 311-426, looked up) GLECDGKVNICCKKQFFVSFKDIGWNDWIIAPSGYHANYCEGECPSHIAGTSGSSLSFHSTVINHYRMRGHSPFAAAAACCVPTKLRPMSMLYYDDGQNIIKKDIQNMIVEECGCS
74	activin-A M91A (ligand, human, UniProt P08476 311-426, looked up) GLECDGKVNICCKKQFFVSFKDIGWNDWIIAPSGYHANYCEGECPSHIAGTSGSSLSFHSTVINHYRMRGHSPFANLKSCCVPTKLRPMSALYYDDGQNIIKKDIQNMIVEECGCS
101	activin-A S55A/L56A (ligand, human, UniProt P08476 311-426, looked up) GLECDGKVNICCKKQFFVSFKDIGWNDWIIAPSGYHANYCEGECPSHIAGTSGSAASFHSTVINHYRMRGHSPFANLKSCCVPTKLRPMSMLYYDDGQNIIKKDIQNMIVEECGCS
81	A/C-2.1 chimeric activin A/activin C protein (ligand, human, UniProt P08476 311-426, looked up) GLECDGKVNICCKKQFFVSFKDIGWNDWIIAPSGYHANYCEGECPSHIAGTSGSSLSFHTAVLNHYRMRGHSPFANLKSCCVPTKLRPMSMLYYDDGQNIIKKDIQNMIVEECGCS
97	activin-A S60A/T61A (ligand, human, UniProt P08476 311-426, looked up) GLECDGKVNICCKKQFFVSFKDIGWNDWIIAPSGYHANYCEGECPSHIAGTSGSSLSFHAAVINHYRMRGHSPFANLKSCCVPTKLRPMSMLYYDDGQNIIKKDIQNMIVEECGCS
82	activin-A R69A/G70A/H71A (ligand, human, UniProt P08476 311-426, looked up) GLECDGKVNICCKKQFFVSFKDIGWNDWIIAPSGYHANYCEGECPSHIAGTSGSSLSFHSTVINHYRMAAASPFANLKSCCVPTKLRPMSMLYYDDGQNIIKKDIQNMIVEECGCS
99	activin-A S52A/G53A/S54A (ligand, human, UniProt P08476 311-426, looked up) GLECDGKVNICCKKQFFVSFKDIGWNDWIIAPSGYHANYCEGECPSHIAGTAAASLSFHSTVINHYRMRGHSPFANLKSCCVPTKLRPMSMLYYDDGQNIIKKDIQNMIVEECGCS
107	A/C-2.2 chimeric activin A/activin C protein (ligand, human, UniProt P08476 311-426, looked up) GLECDGKVNICCKKQFFVSFKDIGWNDWIIAPSGYHANYCEGECPSHIAGTSGSSLSFHSTVLNLLKMRGHSPFANLKSCCVPTKLRPMSMLYYDDGQNIIKKDIQNMIVEECGCS
104	A/C-1 chimeric activin A/activin C protein (ligand, human, UniProt P08476 311-426, looked up) GLECDGKVNICCKKQFFVSFKDIGWNDWIIAPSGYHANYCEGECPLHIAGMPGIAASFHSTVINHYRMRGHSPFANLKSCCVPTKLRPMSMLYYDDGQNIIKKDIQNMIVEECGCS
84	activin-A A31Q (ligand, human, UniProt P08476 311-426, looked up) GLECDGKVNICCKKQFFVSFKDIGWNDWIIQPSGYHANYCEGECPSHIAGTSGSSLSFHSTVINHYRMRGHSPFANLKSCCVPTKLRPMSMLYYDDGQNIIKKDIQNMIVEECGCS
83	activin-A G50A/T51A (ligand, human, UniProt P08476 311-426, looked up) GLECDGKVNICCKKQFFVSFKDIGWNDWIIAPSGYHANYCEGECPSHIAAASGSSLSFHSTVINHYRMRGHSPFANLKSCCVPTKLRPMSMLYYDDGQNIIKKDIQNMIVEECGCS
82	activin-A H65A/M68A (ligand, human, UniProt P08476 311-426, looked up) GLECDGKVNICCKKQFFVSFKDIGWNDWIIAPSGYHANYCEGECPSHIAGTSGSSLSFHSTVINAYRARGHSPFANLKSCCVPTKLRPMSMLYYDDGQNIIKKDIQNMIVEECGCS
79	A/C-2.4 chimeric activin A/activin C protein (ligand, human, UniProt P08476 311-426, looked up) GLECDGKVNICCKKQFFVSFKDIGWNDWIIAPSGYHANYCEGECPSHIAGTSGSSLSFHSTVINHYRANTAAPFANLKSCCVPTKLRPMSMLYYDDGQNIIKKDIQNMIVEECGCS
73	activin-A W25A (ligand, human, UniProt P08476 311-426, looked up) GLECDGKVNICCKKQFFVSFKDIGANDWIIAPSGYHANYCEGECPSHIAGTSGSSLSFHSTVINHYRMRGHSPFANLKSCCVPTKLRPMSMLYYDDGQNIIKKDIQNMIVEECGCS
35	activin-A L92A (ligand, human, UniProt P08476 311-426, looked up) GLECDGKVNICCKKQFFVSFKDIGWNDWIIAPSGYHANYCEGECPSHIAGTSGSSLSFHSTVINHYRMRGHSPFANLKSCCVPTKLRPMSMAYYDDGQNIIKKDIQNMIVEECGCS
78	activin-A T61P (ligand, human, UniProt P08476 311-426, looked up) GLECDGKVNICCKKQFFVSFKDIGWNDWIIAPSGYHANYCEGECPSHIAGTSGSSLSFHSPVINHYRMRGHSPFANLKSCCVPTKLRPMSMLYYDDGQNIIKKDIQNMIVEECGCS
83	activin-A V62A/I63A (ligand, human, UniProt P08476 311-426, looked up) GLECDGKVNICCKKQFFVSFKDIGWNDWIIAPSGYHANYCEGECPSHIAGTSGSSLSFHSTAANHYRMRGHSPFANLKSCCVPTKLRPMSMLYYDDGQNIIKKDIQNMIVEECGCS
91	activin-A P45A/S46A/H47A/I48A (ligand, human, UniProt P08476 311-426, looked up) GLECDGKVNICCKKQFFVSFKDIGWNDWIIAPSGYHANYCEGECAAAAAGTSGSSLSFHSTVINHYRMRGHSPFANLKSCCVPTKLRPMSMLYYDDGQNIIKKDIQNMIVEECGCS
126	activin-A F58A/H59A (ligand, human, UniProt P08476 311-426, looked up) GLECDGKVNICCKKQFFVSFKDIGWNDWIIAPSGYHANYCEGECPSHIAGTSGSSLSAASTVINHYRMRGHSPFANLKSCCVPTKLRPMSMLYYDDGQNIIKKDIQNMIVEECGCS
87	A/C-2.3 chimeric activin A/activin C protein (ligand, human, UniProt P08476 311-426, looked up) GLECDGKVNICCKKQFFVSFKDIGWNDWIIAPSGYHANYCEGECPSHIAGTSGSSLSFHSTVINHLKANTHSPFANLKSCCVPTKLRPMSMLYYDDGQNIIKKDIQNMIVEECGCS
82	activin-A A49G (ligand, human, UniProt P08476 311-426, looked up) GLECDGKVNICCKKQFFVSFKDIGWNDWIIAPSGYHANYCEGECPSHIGGTSGSSLSFHSTVINHYRMRGHSPFANLKSCCVPTKLRPMSMLYYDDGQNIIKKDIQNMIVEECGCS
85	activin-A H59P (ligand, human, UniProt P08476 311-426, looked up) GLECDGKVNICCKKQFFVSFKDIGWNDWIIAPSGYHANYCEGECPSHIAGTSGSSLSFPSTVINHYRMRGHSPFANLKSCCVPTKLRPMSMLYYDDGQNIIKKDIQNMIVEECGCS

Target: T2, ALK4 (activin type I receptor)
Experiment: cell-based or functional assay

% Activin Activity (A3-luciferase assay in 293T cells)	Binder
17 % of wild type activin-A	A/C-2 chimeric activin A/activin C protein (ligand, human, UniProt P08476 311-426, looked up) GLECDGKVNICCKKQFFVSFKDIGWNDWIIAPSGYHANYCEGECPSHIAGTSGSSLSFHTAVLNLLKANTAAPFANLKSCCVPTKLRPMSMLYYDDGQNIIKKDIQNMIVEECGCS
